# Molecular target: I^125-VEGF
# Assay: cell-based or functional assay
# I^125-VEGF, sequence (P15692 whole entry): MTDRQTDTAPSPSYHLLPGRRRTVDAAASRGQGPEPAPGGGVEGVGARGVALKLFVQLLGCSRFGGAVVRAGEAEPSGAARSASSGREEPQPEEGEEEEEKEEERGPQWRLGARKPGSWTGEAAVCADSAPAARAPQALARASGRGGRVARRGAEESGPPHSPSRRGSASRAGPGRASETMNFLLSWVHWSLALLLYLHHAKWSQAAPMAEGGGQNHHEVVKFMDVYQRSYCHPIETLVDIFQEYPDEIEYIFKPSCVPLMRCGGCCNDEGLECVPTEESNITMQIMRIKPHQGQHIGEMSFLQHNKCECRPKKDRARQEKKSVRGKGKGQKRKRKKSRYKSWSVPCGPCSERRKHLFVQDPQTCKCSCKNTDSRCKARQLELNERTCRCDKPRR
binder,measurement,value
DRVQAQTTTVVA [Ala-5 (DRVQAQTTTVVA)],ability of endothelial cells to bind VEGF in the presence of peptide,> 2 fold over original #237
